Measured values reported in patent publication US20160113911A1, “METHODS AND COMPOSITIONS FOR THE TREATMENT OF CANCER” (THE GENERAL HOSPITAL CORPORATION, priority 2013, published 2016).
Substitutions are numbered along the chain they refer to. Numbers in names are those of the source.

B1: Suv39H1: H3K9me3 methyltransferase, overexpressed by transfection (protein, UniProt O43463 1-412, looked up)
Histone-lysine …: MAENLKGCSVCCKSSWNQLQDLCRLAKLSCPALGISKRNLYDFEVEYLCDYKKIREQEYYLVKWRGYPDSESTWEPRQNLKCVRILKQFHKDLERELLRRHHRSKTPRHLDPSLANYLVQKAKQRRALRRWEQELNAKRSHLGRITVENEVDLDGPPRAFVYINEYRVGEGITLNQVAVGCECQDCLWAPTGGCCPGASLHKFAYNDQGQVRLRAGLPIYECNSRCRCGYDCPNRVVQKGIRYDLCIFRTDDGRGWGVRTLEKIRKNSFVMEYVGEIITSEEAERRGQIYDRQGATYLFDLDYVEDVYTVDAAYYGNISHFVNHSCDPNLQVYNVFIDNLDERLPRIAFFATRTIRAGEELTFDYNMQVDPVDMESTRMDSNFGLAGLPGSPKKRVRIECKCGTESCRKYLF
modifications: Halo tag
notes: H3K9me3 methyltransferase, overexpressed by transfection
B2: 2A-R825C*: KDM4A mutation (protein, UniProt O75164 2-1064, looked up, variant R825C)
Lysine-specific demethylase 4A: ASESETLNPSARIMTFYPTMEEFRNFSRYIAYIESQGAHRAGLAKVVPPKEWKPRASYDDIDDLVIPAPIQQLVTGQSGLFTQYNIQKKAMTVREFRKIANSDKYCTPRYSEFEELERKYWKNLTFNPPIYGADVNGTLYEKHVDEWNIGRLRTILDLVEKESGITIEGVNTPYLYFGMWKTSFAWHTEDMDLYSINYLHFGEPKSWYSVPPEHGKRLERLAKGFFPGSAQSCEAFLRHKMTLISPLMLKKYGIPFDKVTQEAGEFMITFPYGYHAGFNHGFNCAESTNFATRRWIEYGKQAVLCSCRKDMVKISMDVFVRKFQPERYKLWKAGKDNTVIDHTLPTPEAAEFLKESELPPRAGNEEECPEEDMEGVEDGEEGDLKTSLAKHRIGTKRHRVCLEIPQEVSQSELFPKEDLSSEQYEMTECPAALAPVRPTHSSVRQVEDGLTFPDYSDSTEVKFEELKNVKLEEEDEEEEQAAAALDLSVNPASVGGRLVFSGSKKKSSSSLGSGSSRDSISSDSETSEPLSCRAQGQTGVLTVHSYAKGDGRVTVGEPCTRKKGSAARSFSERELAEVADEYMFSLEENKKSKGRRQPLSKLPRHHPLVLQECVSDDETSEQLTPEEEAEETEAWAKPLSQLWQNRPPNFEAEKEFNETMAQQAPHCAVCMIFQTYHQVEFGGFNQNCGNASDLAPQKQRTKPLIPEMCFTSTGCSTDINLSTPYLEEDGTSILVSCKKCSVRVHASCYGVPPAKASEDWMCSRCSANALEEDCCLCSLRGGALQRANDDRWVHVSCAVAILEARFVNIAERSPVDVSKIPLPCFKLKCIFCKKRRKRTAGCCVQCSHGRCPTAFHVSCAQAAGVMMQPDDWPFVVFITCFRHKIPNLERAKGALQSITAGQKVISKHKNGRFYQCEVVRLTTETFYEVNFDDGSFSDNLYPEDIVSQDCLQFGPPAEGEVVQVRWTDGQVYGAKFVASHPIQMYQVEFEDGSQLVVKRDDVYTLDEELPKRVKSRLSVASDMRFNEIFTEKEVKQEKKRQRVINSRYREDYIEPALYRAIME
B3: 2A-R825H*: KDM4A mutation (protein, UniProt O75164 2-1064, looked up, variant R825H)
Lysine-specific demethylase 4A: B2 Lysine-specific demethylase 4A with C824H
B4: 2A-V1003A: KDM4A mutation (protein)
chain: MASESETLNPSARIMTFYPTMEEFRNFSRYIAYIESQGAHRAGLAKVVPPKEWKPRASYDDIDDLVIPAPIQQLVTGQSGLFTQYNIQKKAMTVREFRKIANSDKYCTPRYSEFEELERKYWKNLTFNPPIYGADVNGTLYEKHVDEWNIGRLRTILDLVEKESGITIEGVNTPYLYFGMWKTSFAWHTEDMDLYSINYLHFGEPKSWYSVPPEHGKRLERLAKGFFPGSAQSCEAFLRHKMTLISPLMLKKYGIPFDKVTQEAGEFMITFPYGYHAGFNHGFNCAESTNFATRRWIEYGKQAVLCSCRKDMVKISMDVFVRKFQPERYKLWKAGKDNTVIDHTLPTPEAAEFLKESELPPRAGNEEECPEEDMEGVEDGEEGDLKTSLAKHRIGTKRHRVCLEIPQEVSQSELFPKEDLSSEQYEMTECPAALAPVRPTHSSVRQVEDGLTFPDYSDSTEVKFEELKNVKLEEEDEEEEQAAAALDLSVNPASVGGRLVFSGSKKKSSSSLGSGSSRDSISSDSETSEPLSCRAQGQTGVLTVHSYAKGDGRVTVGEPCTRKKGSAARSFSERELAEVADEYMFSLEENKKSKGRRQPLSKLPRHHPLVLQECVSDDETSEQLTPEEEAEETEAWAKPLSQLWQNRPPNFEAEKEFNETMAQQAPHCAVCMIFQTYHQVEFGGFNQNCGNASDLAPQKQRTKPLIPEMCFTSTGCSTDINLSTPYLEEDGTSILVSCKKCSVRVHASCYGVPPAKASEDWMCSRCSANALEEDCCLCSLRGGALQRANDDRWVHVSCAVAILEARFVNIAERSPVDVSKIPLPRFKLKCIFCKKRRKRTAGCCVQCSHGRCPTAFHVSCAQAAGVMMQPDDWPFVVFITCFRHKIPNLERAKGALQSITAGQKVISKHKNGRFYQCEVVRLTTETFYEVNFDDGSFSDNLYPEDIVSQDCLQFGPPAEGEVVQVRWTDGQVYGAKFVASHPIQMYQVEFEDGSQLVVKRDDAYTLDEELPKRVKSRLSVASDMRFNEIFTEKEVKQEKKRQRVINSRYREDYIEPALYRAIME
B5: 2A-D1023Y: KDM4A mutation (protein)
chain: B4 chain with A1003V, D1023Y
B6: 2A-E1032K: KDM4A mutation (protein)
chain: B4 chain with A1003V, E1032K
B7: 2A-E23K: KDM4A mutation (protein)
chain: B4 chain with E23K, A1003V
B8: 2A-S28N: KDM4A mutation (protein)
chain: B4 chain with S28N, A1003V

Experiments:
HEK 293T cells = assay: Monitored cell proliferation assay (xCELLigence growth curves, doubling time); type: cell-based, human
Experimental: Seventy two hours post transfection 1×10^4 HEK 293T cells were seeded per well of a 96 well plate, and then treated after 24h. Cell proliferation was monitored with an xCELLigence system (Roche) (Vistejnova et al., 2009).

[1] = tested on: 1q12h copy gain in RPE cells; assay: FISH for site-specific copy gain; type: cell-based, human; conditions: for hypoxia-dependent copy gain of 1q12h / hypoxia-induced 1q12h copy number gains / KDM4A-dependent 1q12h copy gain upon co-expression: RPE cells; for hypoxia-dependent copy gain of 1q12h: 1% O2 24 hours, JIB-04 62.5 nM or 2 mM succinate pre-treatment, or overexpression; for hypoxia-induced 1q12h copy number gains: 4% oxygen, transfection or 2 mM succinate for 24 hours; for KDM4A-dependent 1q12h copy gain upon co-expression: transient transfection 24 hours
Experimental: FISH was performed as described in (Manning et al., 2010). Probes for 1q12h, 1q telomere, and chromosome 2, 6, 8, and X alpha satellite were purchased from Rainbow Scientific. Probes for 1q12 (RP11-80L2), Xq13.2 (RP11-451A22), Xq13.1 (RP11-177A4) were purchased as BAC clones from Children's Hospital Oakland Research Institute (CHORI BacPac) FISH verified clone repository. Oligonucleotide probes for 1q21.2 (BCL9) and 1q23.3 were purchased from Agilent (SureFISH). BACS were prepared utilizing PureLink HiPure Plasmid Filter Maxiprep kit (Life Technologies) using the recommended modified wash buffer. Probes were nick translated (Abbot Molecular Kit) in the presence of fluorescently labeled dTTP (Enzo Life Science). Images of multiple planes of fields of nuclei were acquired on an Olympus IX81 Spinning Disk Microscope and analyzed using Slidebook 5.0 software. We used a conservative scoring metric for copy gain. Any foci that were touching were scored as a single foci to prevent increased numbers due to normally replicated foci. For RPE cells, copy gain was scored as any cell with 3 or more distinct foci. For 293T cells, copy gain was scored for any cell with 5 or more distinct foci. For RPE cells each experiment includes at least one replicate from the two different polyclonal stable cell preparations. At least 100 cells for each replicate were scored for all experiments except analysis of single cell clones.
Cells were plated onto culture dishes and allowed to adhere for 20-24 hrs in normoxia (5% CO2, 21% O2, and 74% N2). For hypoxic treatment, cells were maintained in a HERA Cell 150™ incubator (Thermo Scientific) flushed with 5% CO2, 1% O2 or 4% O2, and balanced with N2 for the duration of the experiment. Incubator calibrations were carried out by Bianchi Associates Calibrations/Verifications.
To release, cells were washed twice with culture medium pre-conditioned in normoxia or hypoxia, and supplied with fresh pre-conditioned media. For JIB-04 treatment, normoxic cells were pre-treated with 62.5 nM JIB-04 (Xcessbio) for 24 hrs, then treated again with JIB-04 and either transferred to 1% O2 or maintained in normoxia for an additional 24 hrs. Succinate was administered at a final concentration of 2 mM and cells were either maintained in normoxia for 72 hrs or maintained in normoxia for 48 hrs prior to being transferred to 1% O2 for 24 hrs.
FISH was performed as described in (Black et al., 2013; Manning et al., 2010). Probes for 1q12h, 1q telomere, chromosome 8 centromere (alpha satellite), and X centromere (alpha satellite) were purchased from Rainbow Scientific. Probes for Xq13.1 (RP11-177A4), Zebrafish BCL9 (CH73-15J19) and Zebrafish IGBP1 (CH73-223D24) were purchased as BAC clones from Children's Hospital Oakland Research Institute (CHORI BacPac) clone repository. Probes for 1q21.2 (BCL9) and 1q23.3 were purchased from Agilent (SureFISH).
FISH was performed as described in (Black et al., 2013; Manning et al., 2010). Probes for 1q12h, 1q telomere, chromosome 8 centromere (alpha satellite), and X centromere (alpha satellite) were purchased from Rainbow Scientific. Probes for Xq13.1 (RP11-177A4), Zebrafish BCL9 (CH73-15J19) and Zebrafish IGBP1 (CH73-223D24) were purchased as BAC clones from Children's Hospital Oakland Research Institute (CHORI BacPac) clone repository. Probes for 1q21.2 (BCL9) and 1q23.3 were purchased from Agilent (SureFISH). BACS were prepared utilizing PureLink HiPure™ Plasmid Filter Maxiprep kit (Life Technologies) using the recommended modified wash buffer. Probes were nick translated (Abbot Molecular Kit) in the presence of fluorescently labeled dTTP (Enzo Life Science). Images of multiple planes of fields of nuclei were acquired on an Olympus IX81 T Spinning Disk Microscope and analyzed using Slidebook™ 5.0 software. A conservative scoring metric was used for copy gain. Any foci that were touching were scored as a single copy to prevent increased numbers due to normally replicated foci.

H3K9me3 = assay: H3K9 demethylase activity of KDM4 variants in transfected cells; type: cell-based; design: key: + indicates active; − indicates inactive; +/− indicates partial acitivty; conditions: KDM4A mutations
H3K36me3 = assay: H3K36 demethylase activity of KDM4A variants in transfected cells (immunofluorescence); type: cell-based; design: key: + indicates active; − indicates inactive; +/− indicates partial acitivty; conditions: KDM4A mutations

Row | Molecule | H3k9 Demethylase Activity (H3K9me3) | H3k36 Demethylase Activity (H3K36me3) | other results
1 | C[C@@H]1C[C@@H]([C@H](O)CC2CC(=O)NC(=O)C2)C(=O)[C@@H](C)C1 [Cycloheximide] |  |  | cell growth vs DMSO, KDM4A shRNA cells (HEK 293T cells; HEK293T KDM4A shRNA, 30 nM): slow growth; cell growth vs DMSO, control vector cells (HEK 293T cells; HEK293T control vector, 30 nM): do not slow growth
2 | CCCS(=O)(=O)Nc1ccc(F)c(C(=O)c2c[nH]c3ncc(Cl)cc23)c1F [PLX-4720] |  |  | drug sensitivity of KDM4A shRNA cells vs control vector (growth curves, doubling time) (HEK 293T cells; HEK293T, PLX-4720): more sensitive
3 | HP1γ: H3K9me3 binding protein, overexpressed by transfection |  |  | hypoxia-dependent copy gain of 1q12h [1]: able to abrogate hypoxic induction of site-specific copy gain; hypoxia-induced 1q12h copy number gains [1]: antagonized; KDM4A-dependent 1q12h copy gain upon co-expression [1]: significantly reduced the number of KDM4A overexpressing cells with altered copy number of 1q12h
4 | O=C1NC(=NCc2cccs2)S/C1=C\c1ccc2ncccc2c1 [R03306, reference compound] |  |  | 1q12h copy number in KDM4A overexpressing cells upon arrest ([1]; stable GFP-KDM4A RPE cells, arrested 20 hours): failed to display increased copy number of 1q12h
5 | B1 |  |  | hypoxia-dependent copy gain of 1q12h [1]: able to abrogate hypoxic induction of site-specific copy gain; hypoxia-induced 1q12h copy number gains [1]: antagonized; KDM4A-dependent 1q12h copy gain upon co-expression [1]: sufficient to abrogate KDM4A-dependent 1q12h copy gain
6 | B2 | + | + | 
7 | B3 | + | + | 
8 | B4 | + | + | 
9 | B5 | + | + | 
10 | B6 | + | + | 
11 | B7 | + | + | 
12 | B8 | + | + | 
